The target of experiment [1] is T1, recombinant human TNF-α protein (BioLegend) (human, UniProt P01375 77-233). Kind of experiment: cell-based or functional assay.
In experiment [2] the target is T2, recombinant human CD40L (rhCD40L-his) (human, UniProt P29965 113-261, limits assumed).
T2 construct: The construct is purified by IMAC and named rhCD40L-his; also called rhCD40L antigen; soluble CD40L
T2 sequence (looked up): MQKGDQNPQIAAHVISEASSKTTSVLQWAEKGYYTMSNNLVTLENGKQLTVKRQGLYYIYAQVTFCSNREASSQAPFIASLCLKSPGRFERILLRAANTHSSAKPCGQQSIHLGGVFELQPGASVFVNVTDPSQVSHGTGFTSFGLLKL
In words: ELISA, CD40L coated, anti-human Fd-HRP. For orientation: ELISA stands for enzyme-linked immunosorbent assay.
From the text: HRP-conjugated goat anti-human Fd antibodies were used as secondary antibodies.

Experiment [3] deals with T3, human serum albumin (HSA) (Sigma-Aldrich) (human, UniProt P02768 25-609). In words: BLI (Octet RED), HSA immobilised on AR2G biosensor. Background: BLI is a label-free optical method that tracks binding on a fibre tip over time.
From the text: (§1) The purified antibodies were continuously treated in a 1× kinetic buffer at pH 7.4 for two-fold dilution.
For experiment [4], the target named is T2, recombinant human CD40L (rhCD40L-his). In words: BLI (Octet RED), CD40L immobilised on AR2G biosensor.
From the text: as §1
Experiment [5] addresses T1, recombinant human TNF-α protein …. Kind of experiment: BLI (Octet RED), TNF-α immobilised on AR2G biosensor.
From the text: as §1
The target of experiment [6] is T4, cellular membrane CD40L expressed on D1.1 cells (CRL-10915) (UniProt P29965 1-261, limits assumed).
T4 construct: whole, on cells; also called mCD40L; cell membrane CD40L
T4 sequence (looked up): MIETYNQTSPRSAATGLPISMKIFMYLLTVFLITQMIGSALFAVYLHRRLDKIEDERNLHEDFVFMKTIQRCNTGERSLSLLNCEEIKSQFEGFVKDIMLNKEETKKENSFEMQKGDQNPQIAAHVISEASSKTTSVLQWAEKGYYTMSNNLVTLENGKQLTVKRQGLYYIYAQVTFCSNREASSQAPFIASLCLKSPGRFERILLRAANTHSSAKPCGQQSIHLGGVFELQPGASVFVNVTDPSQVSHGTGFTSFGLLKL
Kind of experiment: flow cytometry on D1.1 cells, anti-human kappa-FITC.

Experiment [7] deals with T3, human serum albumin (HSA) …. Kind of experiment: BLI (Octet RED).
Method: (§2) The binding and dissociation kinetics were obtained using Octet QK software. Binding rate constants were calculated such that the observed binding curves are fitted to a 1:1 binding model.
Experiment [8] has the same target. In words: BLI (Octet RED), second run.
Method: as §2
For experiment [9] the target is unchanged. In words: BLI (Octet RED), average of two runs.
Method: as §2
The target is the same in experiment [10]. Kind of experiment: BLI (Octet RED), HSA immobilised on AR2G biosensor, first run.
Method: as §2

The results in this text go back to patent US20230220093A1 (published 2023).

By Kd is commonly meant the free concentration of one partner at which half of the binding sites on the other are occupied at equilibrium, for simple one-to-one binding. A word on the koff: it is the first-order rate constant of dissociation. What is called kon is a measure of how fast the partners come together.

T1 sequence (P01375 77-233 limits assumed): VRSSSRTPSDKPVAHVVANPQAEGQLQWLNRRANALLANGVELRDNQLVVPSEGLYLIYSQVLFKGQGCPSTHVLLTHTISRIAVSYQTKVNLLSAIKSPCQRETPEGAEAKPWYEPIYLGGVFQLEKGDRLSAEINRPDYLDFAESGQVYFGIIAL

B1: APB-B1a, (anti-CD40L scFv)2-(anti-HSA Fab)-(anti-TNF-α Fv) (bispecific antibody)
heavy: DIVLTQSPATLSVSPGERATISCRASQRVSSSTYSYMHWYQQKPGQPPKLLIKYASNLESGVPARFSGSGSGTDFTLTISSVEPEDFATYYCQHSWEIPPTFGQGTKLEIKRGGGGSGGGGSGGGGSQVQLVQSGAEVVKPGASVKLSCKASGYIFTSYYMYWVKQAPGQGLEWIGEINPSNGDTNFNEKFKSKATLTVDKSASTAYMELSSLRSEDTAVYYCTRSDGRNDMDSWGQGTLVTVSSGGGGSGGGGSGGGGSQVQLVQSGGGPVKPGGSLRLSCAASGFMFRAYSMNWVRQAPGKGLEWVSSISSSGRYIHYADSVKGRFTISRDNAKNSLYLQMNSLRAEDTAVYYCARETVMAGKALDYWGQGTLVTVSSASTKGPSVFPLAPSSKSTSEGTAALGCLVKDYFPEPVTVSWNSGALTSGVHTFPAVLQSSGLYSLSSVVTVPSSSLGTQTYICNVNHKPSNTKVDKKVEPKSSGGGGSGGGGSGGGGSEVQLVESGGGLVQPGGSLRLSCAASGYVFTDYGMNWVRQAPGKGLEWMGWINTYIGEPIYADSVKGRFTFSLDTSKSTAYLQMNSLRAEDTAVYYCARGYRSYAMDYWGQGTLVTVSS
light: DIVLTQSPATLSVSPGERATISCRASQRVSSSTYSYMHWYQQKPGQPPKLLIKYASNLESGVPARFSGSGSGTDFTLTISSVEPEDFATYYCQHSWEIPPTFGQGTKLEIKRGGGGSGGGGSGGGGSQVQLVQSGAEVVKPGASVKLSCKASGYIFTSYYMYWVKQAPGQGLEWIGEINPSNGDTNFNEKFKSKATLTVDKSASTAYMELSSLRSEDTAVYYCTRSDGRNDMDSWGQGTLVTVSSGSTSGSGKPGSGEGSTKGDIVLTQSPGTLSLSPGETATLSCRASQSVGSNLAWYQQKPGQAPRLLIYGASTGATGVPARFSGSRSGTDFTLTITSLQPEDFATYYCQQYYSFLAKTFGQGTQLEIKRTVAAPSVFIFPPSDEQLKSGTASVVCLLNNFYPREAKVQWKVDNALQSGNSQESVTEQDSKDSTYSLSNTLTLSKADYEKHKVYACEVTHQGLSSPVTKSFNRGESGGGGSGGGGSGGGGSDIQMTQSPSSLSASVGDRVTITCKASQNVGTNVAWYQQKPGKAPKALIYSASFLYSGVPYRFSGSGSGTDFTLTISSLQPEDFATYYCQQYNIYPLTFGQGTKVEIKR
notes: also called APB-1a; (scFv)2-Fab-Fv (certolizumab)
On to B1, for which, in experiment [1], the “IC50, HEK-Blue reporter (SEAP), soluble TNF-α 10 ng/ml (FIG. 22B)” value is 3.05 nM and the “IC50, inhibition of TNF-α mediated cytotoxicity, L929 mouse cells, HSA present (CCK-8)” value amounted to 5.3 nM. Further, the “fold lower binding capacity against anti-human CD40L IgG1 (ruplizumab)” value in [2] is roughly 1.5 fold. In experiment [3], this molecule gave a Kd of 0.765 nM, a koff of 0.00042 s⁻¹ and a kon of 549000 M⁻¹ s⁻¹. In addition, in experiment [4], the Kd was found to be 0.192 nM, the koff was 0.000113 s⁻¹ and the kon was determined as 590000 M⁻¹ s⁻¹. Moreover, in experiment [5], the Kd amounted to 0.164 nM, the off-rate constant (koff) was 3.82e-05 s⁻¹ and the kon is 230000 M⁻¹ s⁻¹.

B2: SL335 Fab (anti-HSA Fab) (Fab, V domains shown)
VH: QVQLVQSGGGPVKPGGSLRLSCAASGFMFRAYSMNWVRQAPGKGLEWVSSISSSGRYIHYADSVKGRFTISRDNAKNSLYLQMNSLRAEDTAVYYCARETVMAGKALDYWGQGTLVTVSS
VL: DIVLTQSPGTLSLSPGETATLSCRASQSVGSNLAWYQQKPGQAPRLLIYGASTGATGVPARFSGSRSGTDFTLTITSLQPEDFATYYCQQYYSFLAKTFGQGTQLEIKR
notes: also called anti-HSA Fab (SL335)
Take B2: the binding result in experiment [6] is given as “no binding”. In [3], this molecule gave a Kd of 0.286 nM, a koff of 0.000288 s⁻¹ and a kon of 1.01e+06 M⁻¹ s⁻¹.

B3: APB-A1, recombinant antibody (anti-CD40L scFv)2-anti-HSA Fab (bispecific antibody)
heavy: DIVLTQSPATLSVSPGERATISCRASQRVSSSTYSYMHWYQQKPGQPPKLLIKYASNLESGVPARFSGSGSGTDFTLTISSVEPEDFATYYCQHSWEIPPTFGGGTKLEIKRGGGGSGGGGSGGGGSQVQLVQSGAEVVKPGASVKLSCKASGYIFTSYYMYWVKQAPGQGLEWIGEINPSNGDTNFNEKFKSKATLTVDKSASTAYMELSSLRSEDTAVYYCTRSDGRNDMDSWGQGTLVTVSSGGGGSGGGGSGGGGSQVQLVQSGGGPVKPGGSLRLSCAASGFMFRAYSMNWVRQAPGKGLEWVSSISSSGRYIHYADSVKGRFTISRDNAKNSLYLQMNSLRAEDTAVYYCARETVMAGKALDYWGQGTLVTVSSASTKGPSVFPLAPSSKSTSEGTAALGCLVKDYFPEPVTVSWNSGALTSGVHTFPAVLQSSGLYSLSSVVTVPSSSLGTQTYICNVNHKPSNTKVDKKVEPKSS
light: DIVLTQSPATLSVSPGERATISCRASQRVSSSTYSYMHWYQQKPGQPPKLLIKYASNLESGVPARFSGSGSGTDFTLTISSVEPEDFATYYCQHSWEIPPTFGGGTKLEIKRGGGGSGGGGSGGGGSQVQLVQSGAEVVKPGASVKLSCKASGYIFTSYYMYWVKQAPGQGLEWIGEINPSNGDTNFNEKFKSKATLTVDKSASTAYMELSSLRSEDTAVYYCTRSDGRNDMDSWGQGTLVTVSSGSTSGSGKPGSGEGSTKGDIVLTQSPGTLSLSPGETATLSCRASQSVGSNLAWYQQKPGQAPRLLIYGASTGATGVPARFSGSRSGTDFTLTITSLQPEDFATYYCQQYYSFLAKTFGQGTQLEIKRTVAAPSVFIFPPSDEQLKSGTASVVCLLNNFYPREAKVQWKVDNALQSGNSQESVTEQDSKDSTYSLSNTLTLSKADYEKHKVYACEVTHQGLSSPVTKSFNRGES
notes: also called (anti-hu5c8 scFv)2-SL335; (scFv)2-Fab
As for B3, in experiment [7], the “fold of KD against SL335-HSA KD” value is roughly 2.6 fold. The same molecule gave a Kd in experiment [8] of 0.628 nM. In [9], the Kd was 0.688 nM, the off-rate (koff) amounted to 0.00056 s⁻¹ and the kon amounted to 804000 M⁻¹ s⁻¹. In addition, in [10], binding was put at a Kd of 0.748 nM.
